B2: TNF-gamma-beta, full length, on transfected cells (ligand, human, UniProt O95150 1-251, looked up)
chain: MAEDLGLSFGETASVEMLPEHGSCRPKARSSSARWALTCCLVLLPFLAGLTTYLLVSQLRAQGEACVQFQALKGQEFAPSHQQVYAPLRADGDKPRAHLTVVRQTPTQHFKNQFPALHWEHELGLAFTKNRMNYTNKFLLIPESGDYFIYSQVTFRGMTSECSEIRQAGRPNKPDSITVVITKVTDSYPEPTQLLMGTKSVCEVGSNWFQPIYLGAMFSLQEGDKLMVNVSDISLVDYTKEDKTFFGAFLL
notes: whole, on cells; also called TL1β
B4: Full-length human TR6 (without Fc) (receptor)
chain: VAETPTYPWRDAETGERLVCAQCPPGTFVQRPCRRDSPTTCGPCPPRHYTQFWNYLERCRYCNVLCGEREEEARACHATHNRACRCRTGFFAHAGFCLEHASCPPGAGVIAPGTPSQNTQCQPCPPGTFSASSSSSEQCQPHRNCTALGLALNVPGSSSHDTLCTSCTGFPLSTRVPGAEECERAVIDFVAFQDISIKRLQRLLQALEAPEGWGPTPRAGRAALQLKLRRRLTELLGAQDGALLVRLLQALRVARMPGLERSVRERFLPVH
notes: Full-length cDNA expressed in Sf9 cells with the natural leader; also called TR6 non-Fc; TR6-non-Fc
B5: Human LIGHT protein, natural secreted form (aa83-240) (ligand, UniProt O43557 83-240, looked up)
chain: LIQERRSHEVNPAAHLTGANSSLTGSGGPLLWETQLGLAFLRGLSYHDGALVVTKAGYYYIYSKVQLGGVGCPLGLASTITHGLYKRTPRYPEELELLVSQQSPCGRATSSSRVWWDSSFLGGVVHLEAGEKVVVRVLDERLVRLRDGTRSYFGAFMV
notes: range 83-240; also called soluble LIGHT

Key:
[1] = biological target: T1, Recombinant, untagged TNF-gamma-beta protein (aa 72-251) from E. coli (human, UniProt O95150 72-251); assay: BIAcore, DR3-Fc immobilized, TNF-gamma-beta 3-370 nM in flow; DR3-Fc
T1 construct: also called TL1β; recombinant TL1β protein
T1 sequence (looked up): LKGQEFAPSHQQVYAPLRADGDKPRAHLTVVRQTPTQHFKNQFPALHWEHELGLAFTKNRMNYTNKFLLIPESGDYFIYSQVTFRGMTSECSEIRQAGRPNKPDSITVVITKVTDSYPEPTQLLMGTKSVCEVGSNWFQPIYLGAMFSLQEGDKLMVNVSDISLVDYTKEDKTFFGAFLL
Protocol: (§1) TNFR-Fc were covalently immobilized to the BIAcore sensor chip (CM5 chip) via amine groups using N-ethyl-N′-(dimethylaminopropyl) carbodiimide/N-hydroxysuccinimide chemistry. […] The amount of bound protein was determined during washing of the flow cell with HBS buffer (10 mM HEPES, pH 7.4, 150 mM NaCl, 3.4 mM EDTA, 0.005% Surfactant P20). The flow cell surface was regenerated by displacing bound protein by washing with 20 microliters of 10 mM glycine-HCl, pH 2.3. For kinetic analysis, the on and off rates were determined using the kinetic evaluation program in BIAevaluation 3 software using a 1:1 binding model and the global analysis method.

[2] = biological target: T1, Recombinant, untagged TNF-gamma-beta …; assay: BIAcore, three batches of TNF-gamma-beta; DR3-Fc, average of three batches
Protocol: as §1

[3] = biological target: T2, TNFR-6 alpha-Fc fusion protein (full length TNFR-6 alpha, amino acids 1-300 of SEQ ID NO:2, fused to the Fc … (human, UniProt O95407 30-300)); assay: FACS on transfected cells
T2 construct: Construct M1-H300 fused to Fc (pA2Fc:TR6, baculovirus/Sf9); the secreted protein starts at Val 30 and is a disulfide-linked dimer; also called TNFR6-Fc; TR6-Fc
T2 sequence: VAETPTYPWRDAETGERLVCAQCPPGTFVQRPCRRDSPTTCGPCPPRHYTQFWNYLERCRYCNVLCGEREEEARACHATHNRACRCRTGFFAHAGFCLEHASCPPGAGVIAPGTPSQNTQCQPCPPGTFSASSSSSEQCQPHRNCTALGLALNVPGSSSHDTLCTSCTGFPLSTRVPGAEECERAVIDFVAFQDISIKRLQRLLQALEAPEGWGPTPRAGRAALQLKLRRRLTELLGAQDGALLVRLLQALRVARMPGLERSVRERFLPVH

DR6-Fc = biological target: T3, DR6-Fc (UniProt O75509 42-349, limits assumed); assay: flow cytometry on HEK293F cells expressing full length TNF-gamma-beta
T3 construct: extracellular domain
T3 sequence (looked up): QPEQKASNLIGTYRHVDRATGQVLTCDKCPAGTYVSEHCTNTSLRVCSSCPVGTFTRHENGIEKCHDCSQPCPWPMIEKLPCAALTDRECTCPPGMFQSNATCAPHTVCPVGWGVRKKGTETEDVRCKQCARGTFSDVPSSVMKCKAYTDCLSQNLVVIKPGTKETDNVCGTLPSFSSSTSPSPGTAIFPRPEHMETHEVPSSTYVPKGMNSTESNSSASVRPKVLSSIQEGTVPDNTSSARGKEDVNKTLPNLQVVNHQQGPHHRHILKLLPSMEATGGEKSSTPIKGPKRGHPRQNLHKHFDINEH
Protocol: (§2) One million cells, in 0.1 ml of FACS buffer (PBS, 0.1% BSA, 0.1% NaN₃), were incubated with 0.1-1 microgram of protein or antibody at RT for 15 min. The cells were washed with 3 ml of FACS buffer, reacted with biotinylated primary antibody, and stained with PE-conjugated secondary antibody at RT for 15 min. Cells were then washed again, resuspended in 0.5 microgram/ml of propidium iodide, and live cells were gated and analyzed on a FACScan using the CellQuest software (BD Biosciences).

[4] = biological target: B5; assay: BIAcore, TR2-Fc immobilized, LIGHT in flow; TR2-Fc
Protocol: (§3) The amount of bound protein was determined during washing of the flow cell with HBS buffer (10 mM HEPES, pH 7.4, 150 mM NaCl, 3.4 mM EDTA, 0.005% Surfactant P20). The flow cell surface was regenerated by washing off the bound proteins with 20 microliters of 10 mM glycine-HCl pH 2.3. […] The on- and off-rates were determined according a kinetic evaluation program in the BiaEvaluation 3 software using a 1:1 binding model and the global analysis method.

[5] = biological target: T4, Murine FasL on transfected murine L929 cells (murine, UniProt P41047 1-279); assay: cell-based or functional assay
T4 sequence (looked up): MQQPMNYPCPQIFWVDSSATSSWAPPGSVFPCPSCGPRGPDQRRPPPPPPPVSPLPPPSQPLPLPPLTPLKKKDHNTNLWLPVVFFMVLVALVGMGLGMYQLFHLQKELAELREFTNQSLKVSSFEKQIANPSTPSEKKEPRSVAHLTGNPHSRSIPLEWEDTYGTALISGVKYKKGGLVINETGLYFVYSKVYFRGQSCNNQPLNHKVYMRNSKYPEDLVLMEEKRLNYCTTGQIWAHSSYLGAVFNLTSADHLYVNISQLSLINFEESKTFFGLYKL

[6] = biological target: B2; assay: flow cytometry competition, competitor DR3-Fc
Protocol: as §2

[7] = biological target: T5, Soluble human FLAG-FasL (synthesized at HGS) (human, UniProt P48023 130-281, limits assumed); assay: BIAcore
T5 construct: called trimerized in the kinetic BIAcore run; cross-linked with FLAG antibody in the cell assays; also called FasL-Flag; trimerized FLAG-FasL
T5 sequence (looked up): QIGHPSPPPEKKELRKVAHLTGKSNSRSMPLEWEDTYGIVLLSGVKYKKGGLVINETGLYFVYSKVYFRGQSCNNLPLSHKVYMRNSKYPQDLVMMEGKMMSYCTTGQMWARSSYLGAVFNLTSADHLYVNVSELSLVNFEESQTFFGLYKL

[8] = biological target: B5; assay: BIAcore
[9] = biological target: T2, TNFR-6 alpha-Fc fusion protein (full …); assay: BIAcore, receptor immobilized, LIGHT in flow; TR6-Fc
Protocol: as §3

[10] = biological target: T2, TNFR-6 alpha-Fc fusion protein (full …); assay: BIAcore; TR6-Fc
Protocol: as §3

[11] = biological target: B4; assay: BIAcore; TR6 without Fc
Protocol: as §3

[12] = biological target: T1, Recombinant, untagged TNF-gamma-beta …; assay: BIAcore, receptor-Fc immobilized
Protocol: as §1

[13] = biological target: B4; assay: flow cytometry competition on activated human T cells
[14] = biological target: T2, TNFR-6 alpha-Fc fusion protein (full …); assay: conclusion from flow cytometry

B1: DR3-Fc (extracellular domain of human DR3, aa 1-199, fused to the Fc domain of human IgG1) (Fc fusion, UniProt Q93038 25-199, looked up, not shown: a dimerising Fc or GST)
chain: QGGTRSPRCDCAGDFHKKIGLFCCRGCPAGHYLKAPCTEPCGNSTCLVCPQDTFLAWENHHNSECARCQACDEQASQVALENCSAVADTRCGCKPGWFVECQVSQCVSSSPFYCQPCLDCGALHRHTRLLCSRRDTDCGTCLPGFYEHGDGCVSCPTSTLGSCPERCAAVCGWRQ
notes: range 1-199
- koff [1]: 0.00413 s⁻¹
- kon [1]: 639000 M⁻¹ s⁻¹
- Kd [2]: 6.45 nM

Binder: B2
- binding result [3]: binds
- binding result (DR6-Fc): no binding

B3: Human TR2-Fc (extracellular domain of TR2, aa1-192, fused to the Fc domain of human IgG1) (Fc fusion, not shown: a dimerising Fc or GST)
chain: LPSCKEDEYPVGSECCPKCSPGYRVKEACGELTGTVCEPCPPGTYIAHLNGLSKCLQCQMCDPAMGLRASRNCSRTENAVCGCSPGHFCIVQDGDHCAACRAYATSSPGQRVQKGGTESQDTLCQNCPPGTFSPNGTLEECQHQTKCSWLVTKA
notes: From CHO cells
- Kd [4]: 4.56 nM

Binder: B4
- IC50 of inhibition of killing of A20 target cells by murine FasL-transfected L929 cells [5]: ~1 ng/mL
- molar ratio of TR6 to DR3-Fc at which no DR3-Fc binding was detected [6]: 2 molar ratio (TR6:DR3-Fc)
- fold reduction in affinity against TR6-Fc [7]: 4 fold
- fold higher off rate against TR6-Fc [8]: ~2 fold

Binder: B5
- Kd [9]: 5.46 nM
- koff [10]: 0.0023 s⁻¹
- kon [10]: 422000 M⁻¹ s⁻¹
- Kd [11]: 14.3 nM
- koff [11]: 0.00483 s⁻¹
- kon [11]: 338000 M⁻¹ s⁻¹

B6: BCMA-Fc (Fc fusion, human, UniProt Q02223 1-54, looked up, not shown: a dimerising Fc or GST)
chain: MLQMAGQCSQNEYFDSLLHACIPCQLRCSSNTPPLTCQRYCNASVTNSVKGTNA
notes: Control surface in the BIAcore analysis
- binding result [12]: no binding (tested: 3-370 nM)

B7: Human LIGHT, full length, on cells (stably transfected 293F cells; endogenous on activated human T cells) (ligand, UniProt O43557 1-240, looked up)
chain: MEESVVRPSVFVVDGQTDIPFTRLGRSHRRQSCSVARVGLGLLLLLMGAGLAVQGWFLLQLHWRLGEMVTRLPDGPAGSWEQLIQERRSHEVNPAAHLTGANSSLTGSGGPLLWETQLGLAFLRGLSYHDGALVVTKAGYYYIYSKVQLGGVGCPLGLASTITHGLYKRTPRYPEELELLVSQQSPCGRATSSSRVWWDSSFLGGVVHLEAGEKVVVRVLDERLVRLRDGTRSYFGAFMV
notes: whole, on cells; also called LIGHT-transfectants; cell membrane LIGHT
- binding result [13]: binds
- binding result [14]: binds
